Results published in patent US20230374564.

Target: T1, VWF73-G6PDH conjugate (inhibited G6PDH-VWF reporter enzyme complex), P11411
T1 chain 1: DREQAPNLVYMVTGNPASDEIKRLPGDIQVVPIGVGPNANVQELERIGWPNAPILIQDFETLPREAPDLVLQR
T1 chain 2: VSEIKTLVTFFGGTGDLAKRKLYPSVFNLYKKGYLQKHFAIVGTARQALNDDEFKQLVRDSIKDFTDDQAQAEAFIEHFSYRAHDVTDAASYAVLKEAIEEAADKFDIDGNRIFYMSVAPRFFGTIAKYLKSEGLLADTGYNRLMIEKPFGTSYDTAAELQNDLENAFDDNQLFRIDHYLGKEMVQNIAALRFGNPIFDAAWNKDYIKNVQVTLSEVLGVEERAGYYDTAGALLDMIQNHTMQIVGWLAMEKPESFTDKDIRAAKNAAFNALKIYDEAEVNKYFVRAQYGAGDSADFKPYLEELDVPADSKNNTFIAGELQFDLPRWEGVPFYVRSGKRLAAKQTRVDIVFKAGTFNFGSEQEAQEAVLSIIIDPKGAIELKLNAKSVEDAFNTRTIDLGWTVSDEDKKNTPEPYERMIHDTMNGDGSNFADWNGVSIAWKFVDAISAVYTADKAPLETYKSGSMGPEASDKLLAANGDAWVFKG

B1: ADAMTS-13 (A Disintegrin And Metalloproteinase with a Thrombospondin type 1 motif, member 13) (protein)
chain: AAGGILHLELLVAVGPDVFQAHQEDTERYVLTNLNIGAELLRDPSLGAQFRVHLVKMVILTEPEGAPNITANLTSSLLSVCGWSQTINPEDDTDPGHADLVLYITRFDLELPDGNRQVRGVTQLGGACSPTWSCLITEDTGFDLGVTIAHEIGHSFGLEHDGAPGSGCGPSGHVMASDGAAPRAGLAWSPCSRRQLLSLLSAGRARCVWDPPRPQPGSAGHPPDAQPGLYYSANEQCRVAFGPKAVACTFAREHLDMCQALSCHTDPLDQSSCSRLLVPLLDGTECGVEKWCSKGRCRSLVELTPIAAVHGRWSSWGPRSPCSRSCGGGVVTRRRQCNNPRPAFGGRACVGADLQAEMCNTQACEKTQLEFMSQQCARTDGQPLRSSPGGASFYHWGAAVPHSQGDALCRHMCRAIGESFIMKRGDSFLDGTRCMPSGPREDGTLSLCVSGSCRTFGCDGRMDSQQVWDRCQVCGGDNSTCSPRKGSFTAGRAREYVTFLTVTPNLTSVYIANHRPLFTHLAVRIGGRYVVAGKMSISPNTTYPSLLEDGRVEYRVALTEDRLPRLEEIRIWGPLQEDADIQVYRRYGEEYGNLTRPDITFTYFQPKPRQAWVWAAVRGPCSVSCGAGLRWVNYSCLDQARKELVETVQCQGSQQPPAWPEACVLEPCPPYWAVGDFGPCSASCGGGLRERPVRCVEAQGSLLKTLPPARCRAGAQQPAVALETCNPQPCPARWEVSEPSSCTSAGGAGLALENETCVPGADGLEAPVTEGPGSVDEKLPAPEPCVGMSCPPGWGHLDATSAGEKAPSPWGSIRTGAQAAHVWTPAAGSCSVSCGRGLMELRFLCMDSALRVPVQEELCGLASKPGSRREVCQAVPCPARWQYKLAACSVSCGRGVVRRILYCARAHGEDDGEEILLDTQCQGLPRPEPQEACSLEPCPPRWKVMSLGPCSASCGLGTARRSVACVQLDQGQDVEVDEAACAALVRPEASVPCLIADCTYRWHVGTWMECSVSCGDGIQRRRDTCLGPQAQAPVPADFCQHLPKPVTVRGCWAGPCVGQGTPSLVPHEEAAAPGRTTATPAGASLEWSQARGLLFSPAPQPRRLLPGPQENSVQSSACGRQHLEPTGTIDMRGPGQADCAVAIGRPLGEVVTLRVLESSLNCSAGDMLLLWGRLTWRKMCRKLLDMTFSSKTNTLVVRQRCGRPGGGVLLRYGSQLAPETFYRECDMQLFGPWGEIVSPSLSPATSNAGGCRLFINVAPHARIAIHALATNMGAGTEGANASYILIRDTHSLRTTAFHGQQVLYWESESSQAEMEFSEGFLKAQASLRGQYWTLQSWVPEMQDPQSWKGKEGT
With B1 the “ADAMTS-13 activity (% of the norm); plasma of TTP patient 01” value was “TTP patient 01 with 9% of the norm”, the “ADAMTS-13 activity (% of the norm); plasma of TTP patient 02” value was “TTP patient 02 with 7% of the norm” and the “ADAMTS-13 activity (% of the norm); plasma of patient with ADAMTS-13 autoantibodies” value was “patient with 21% of the norm”. For the same protein, the “reactivation of G6PDH activity by cleavage of coupled VWF73 (absorption at 340 nm)” value was “occurs in a concentration-dependent manner with respect to ADAMTS-13 activity”, the Δ mOD/min Average; 0% normal plasma in ADAMTS-13-deficient plasma was 208 Δ mOD/min and the Δ mOD/min Average; 5% normal plasma in ADAMTS-13-deficient plasma was 215 Δ mOD/min. The Δ mOD/min Average; 10% normal plasma in ADAMTS-13-deficient plasma was 220 Δ mOD/min, the Δ mOD/min Average; 25% normal plasma in ADAMTS-13-deficient plasma was 232 Δ mOD/min and the Δ mOD/min Average; 50% normal plasma in ADAMTS-13-deficient plasma was 256 Δ mOD/min. For the same protein, the Δ mOD/min Average; 75% normal plasma in ADAMTS-13-deficient plasma was 286 Δ mOD/min, the Δ mOD/min Average; 100% normal plasma in ADAMTS-13-deficient plasma was 311 Δ mOD/min and the Δ mOD/min Average; plasma of Healthy donor 01 was 310 Δ mOD/min. For the same protein, the Δ mOD/min Average; plasma of Healthy donor 02 was 311 Δ mOD/min, the Δ mOD/min Average; plasma of Healthy donor 03 was 307 Δ mOD/min and the Δ mOD/min Average; plasma of Healthy donor 04 was 310 Δ mOD/min. For the same protein, the Δ mOD/min Average; plasma of Healthy donor 05 was 314 Δ mOD/min, the Δ mOD/min Average; plasma of Patient with ADAMTS-13 autoantibodies was 228 Δ mOD/min and the Δ mOD/min Average; plasma of TTP patient 01 was 218 Δ mOD/min. The Δ mOD/min Average; plasma of TTP patient 02 was 216 Δ mOD/min, the Δ mOD/min Measurement 1; 0% normal plasma in ADAMTS-13-deficient plasma was 208 Δ mOD/min and the Δ mOD/min Measurement 1; 5% normal plasma in ADAMTS-13-deficient plasma was 216 Δ mOD/min. The Δ mOD/min Measurement 1; 10% normal plasma in ADAMTS-13-deficient plasma was 221 Δ mOD/min, the Δ mOD/min Measurement 1; 25% normal plasma in ADAMTS-13-deficient plasma was 232 Δ mOD/min and the Δ mOD/min Measurement 1; 50% normal plasma in ADAMTS-13-deficient plasma was 255 Δ mOD/min. The Δ mOD/min Measurement 1; 75% normal plasma in ADAMTS-13-deficient plasma was 286 Δ mOD/min, the Δ mOD/min Measurement 1; 100% normal plasma in ADAMTS-13-deficient plasma was 310 Δ mOD/min and the Δ mOD/min Measurement 1; plasma of Healthy donor 01 was 309 Δ mOD/min. For the same protein, the Δ mOD/min Measurement 1; plasma of Healthy donor 02 was 310 Δ mOD/min, the Δ mOD/min Measurement 1; plasma of Healthy donor 03 was 305 Δ mOD/min and the Δ mOD/min Measurement 1; plasma of Healthy donor 04 was 312 Δ mOD/min. For the same protein, the Δ mOD/min Measurement 1; plasma of Healthy donor 05 was 315 Δ mOD/min, the Δ mOD/min Measurement 1; plasma of Patient with ADAMTS-13 autoantibodies was 227 Δ mOD/min and the Δ mOD/min Measurement 1; plasma of TTP patient 01 was 218 Δ mOD/min. For the same protein, the Δ mOD/min Measurement 1; plasma of TTP patient 02 was 220 Δ mOD/min, the Δ mOD/min Measurement 2; 0% normal plasma in ADAMTS-13-deficient plasma was 208 Δ mOD/min and the Δ mOD/min Measurement 2; 5% normal plasma in ADAMTS-13-deficient plasma was 216 Δ mOD/min. The Δ mOD/min Measurement 2; 10% normal plasma in ADAMTS-13-deficient plasma was 221 Δ mOD/min, the Δ mOD/min Measurement 2; 25% normal plasma in ADAMTS-13-deficient plasma was 233 Δ mOD/min and the Δ mOD/min Measurement 2; 50% normal plasma in ADAMTS-13-deficient plasma was 257 Δ mOD/min. The Δ mOD/min Measurement 2; 75% normal plasma in ADAMTS-13-deficient plasma was 288 Δ mOD/min, the Δ mOD/min Measurement 2; 100% normal plasma in ADAMTS-13-deficient plasma was 312 Δ mOD/min and the Δ mOD/min Measurement 2; plasma of Healthy donor 01 was 310 Δ mOD/min. For the same protein, the Δ mOD/min Measurement 2; plasma of Healthy donor 02 was 311 Δ mOD/min, the Δ mOD/min Measurement 2; plasma of Healthy donor 03 was 309 Δ mOD/min and the Δ mOD/min Measurement 2; plasma of Healthy donor 04 was 311 Δ mOD/min. For the same protein, the Δ mOD/min Measurement 2; plasma of Healthy donor 05 was 312 Δ mOD/min, the Δ mOD/min Measurement 2; plasma of Patient with ADAMTS-13 autoantibodies was 228 Δ mOD/min and the Δ mOD/min Measurement 2; plasma of TTP patient 01 was 219 Δ mOD/min. The Δ mOD/min Measurement 2; plasma of TTP patient 02 was 215 Δ mOD/min, the Δ mOD/min Measurement 3; 0% normal plasma in ADAMTS-13-deficient plasma was 207 Δ mOD/min and the Δ mOD/min Measurement 3; 5% normal plasma in ADAMTS-13-deficient plasma was 214 Δ mOD/min. The Δ mOD/min Measurement 3; 10% normal plasma in ADAMTS-13-deficient plasma was 219 Δ mOD/min, the Δ mOD/min Measurement 3; 25% normal plasma in ADAMTS-13-deficient plasma was 233 Δ mOD/min and the Δ mOD/min Measurement 3; 50% normal plasma in ADAMTS-13-deficient plasma was 254 Δ mOD/min. For the same protein, the Δ mOD/min Measurement 3; 75% normal plasma in ADAMTS-13-deficient plasma was 286 Δ mOD/min, the Δ mOD/min Measurement 3; 100% normal plasma in ADAMTS-13-deficient plasma was 311 Δ mOD/min and the Δ mOD/min Measurement 3; plasma of Healthy donor 01 was 311 Δ mOD/min. The Δ mOD/min Measurement 3; plasma of Healthy donor 02 was 312 Δ mOD/min, the Δ mOD/min Measurement 3; plasma of Healthy donor 03 was 306 Δ mOD/min and the Δ mOD/min Measurement 3; plasma of Healthy donor 04 was 309 Δ mOD/min. For the same protein, the Δ mOD/min Measurement 3; plasma of Healthy donor 05 was 314 Δ mOD/min, the Δ mOD/min Measurement 3; plasma of Patient with ADAMTS-13 autoantibodies was 229 Δ mOD/min and the Δ mOD/min Measurement 3; plasma of TTP patient 01 was 218 Δ mOD/min. The Δ mOD/min Measurement 3; plasma of TTP patient 02 was 214 Δ mOD/min.
